The values that follow come from patent publication US20230338553A1 (TECHNISCHE UNIVERSIT T DRESDEN, published 2023).

The target in experiment [1] is T1, Epidermal Growth Factor Receptor variant III (EGFRvIII) (UniProt P00533 25-1210).
T1 construct: whole, on cells
The experiment is described as follows: flow cytometry on 293T^EGFRvIII cells, anti-myc and anti-biotin detection. On the procedure:
The bound antibodies were detected either via their myc-epitope using anti-myc/FITC antibody or via their biotin residue using anti-biotin/PE antibody (1:10; Miltenyi Biotec, Bergisch Gladbach, Germany). Cells stained only with secondary antibody were included as a control. […] At least 10,000 stained cells were measured by flow cytometry (MACSQuant, Miltenyi Biotec, Bergisch Gladbach, Germany) and analyzed by FlowJo software version 7.6.5 (TreeStar Inc., Ashland, USA).
In this case the AM1-antibodies served as negative controls. Binding of scFvs and of scFv-P-BAPs was visualized with secondary anti-myc-PE (grey histograms in upper and middle graphs). […] Open histograms represent control staining only using secondary antibodies or an IgG-PE isotype control. […] Recombinant proteins were separated using SDS-PAGE, with parental single chain antibodies serving as controls. Blots were subsequently stripped and re-probed with biotin antibodies.
On the technique in general: In flow cytometry, cells or beads pass a laser one at a time.

Experiment [2] has as its target T2, Prostate Stem Cell Antigen (PSCA) (human, UniProt O43653 12-83).
T2 construct: whole, on cells
T2 sequence (looked up): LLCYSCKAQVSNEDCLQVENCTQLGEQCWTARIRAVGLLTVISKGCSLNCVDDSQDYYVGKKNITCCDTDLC
The experiment is described as follows: flow cytometry titration on 293T^PSCA cells, anti-myc-PE detection (Example 7, FIG. 9). The procedure:
After detection with a secondary anti-myc-PE-antibody the MFIs were determined using a MACSQuant Cytometer (Miltenyi Biotech) and FlowJo software and the Kd values were calculated with the PRISM software program. FIG. 9 depicts the graphs for the KD value calculations.

B1: scFv(AM1)-P-BAP (scFv)
scFv: DAAQPARRARRTKLGTELGSQVKLQESGGGLVQPGGSLKLSCVASGFTFSSYTMSWVRRTPEKRLEWVAYIHNGGGHTYYPDTIKGRFTISRDNAKNTLFLEMSSLKSEDTAMYYCTRRMYYGNSHWYFDVWGAGTSVTVSSAKTTPPSVYGGGGSGGGGSGGGGSTNSDIVMTQSPSSLSASLGDRVTINCRTSQDISNYLNWYQLTPDGTVKLLIYYTLKLNSGVPSRFSGSGSGTDYSLTINNLEKEDFATYFCQQSKTLPWTFGGGTKLEIKRADAAPTVSGPKLSSKLKVTVNGTAYDVDVDVDKSHENPMGTILFGGGTGGAPAPAAGGAGAGKAGEGEIPAPLAGTVSKILVKEGDTVKAGQTVLVLEAMKMETEINAPTDGKVEKVLVKERDAVQGGQGLIKIGDLELIEGSSGPEQKLISEEDLNSAVDHHHHHH
modifications: mono-biotinylated at the C-terminal P-BAP (PSTCD biotin acceptor domain) when produced in 293T-huBirA cells
notes: PSCA-specific murine scFv derived from 7F5, fused to P-BAP, with myc tag and His6; also called murine scFv(AM1)-BAP
For the molecule B1, in experiment [1], the binding result was “no binding (tested: 1 µg scFv on 2×10^5 cells)”.

B2: scFv(MR1.1)-P-BAP (scFv)
scFv: DAAQPARRARRTKLGTELGSHMQVKLQQSGGGLVKPGASLKLSCVTSGFTFRKFGMSWVRQTSDKRLEWVASISTGGYNTYYSDNVKGRFTISRENAKNTLYLQMSSLKSEDTALYYCTRGYSPYSYAMDYWGQGTTVTVSSSGGGSGGGGSGGGGSDIELTQSPASLSVATGEKATIRCMTSTDIDDDMNWYQQKPGEPPKFLISEGNTLRPGVPSRFSSSGTGTDFVFTIENTLSEDVGDYYCLQSWNVPLTFGDGTKLEITKLSSKLKVTVNGTAYDVDVDVDKSHENPMGTILFGGGTGGAPAPAAGGAGAGKAGEGEIPAPLAGTVSKILVKEGDTVKAGQTVLVLEAMKMETEINAPTDGKVEKVLVKERDAVQGGQGLIKIGDLELIEGSSGPEQKLISEEDLNSAVDHHHHHH
modifications: mono-biotinylated at the C-terminal P-BAP (PSTCD biotin acceptor domain)
notes: EGFRvIII-specific scFv fused to P-BAP
As to B2, the binding result in experiment [1] is on record as “binds”.

B3: scFv(h-AM1)-BAP (scFv)
scFv: DAAQPARRARRTKLGTELGSEVQLLESGGGLVQPGGSLRLSCVASGFTFSSYTMSWVRQAPGKGLEWVSYIHNGGGHTYYADSVKGRFTISRDNSKNTLYLQMNSLRAEDTAVYYCTRRMYYGNSHWYFDVWGAGTRVTITSAKTTPPSVYGGGGSGGGGSGGGGSTNSDIQMTQSPSSLSASVGDRVTITCRTSQSISNYLNWYQQKPGKAPKLLIYYTLKLNSGVPSRFSGSGSGTDFTLTISSLQPEDFATYYCQQSKTLPWTFGGGTKLEIKRADAAPTVSGPEQKLISEEDLNSAVDMSGLNDIFEAQKIEWHEGAPSSHHHHHH
modifications: mono-biotinylated at the C-terminal BAP (Bio-Tag)
notes: Fully humanized PSCA-specific scFv with N-terminal Ig kappa leader in the construct and C-terminal c-Myc tag, Bio-Tag and His6; also called humanized scFv(h-AM1)
In the case of B3, the “fold better affinity (KD value) than the parental murine scFv(AM1)” value in experiment [2] stood at 100 fold.
